{"source": "patent US20100286365A1", "target": "GLP-1 receptor (GLP-1 cyclase assay of Example 11) (UniProt P32301)", "sequence (P32301 22-463 limits assumed)": "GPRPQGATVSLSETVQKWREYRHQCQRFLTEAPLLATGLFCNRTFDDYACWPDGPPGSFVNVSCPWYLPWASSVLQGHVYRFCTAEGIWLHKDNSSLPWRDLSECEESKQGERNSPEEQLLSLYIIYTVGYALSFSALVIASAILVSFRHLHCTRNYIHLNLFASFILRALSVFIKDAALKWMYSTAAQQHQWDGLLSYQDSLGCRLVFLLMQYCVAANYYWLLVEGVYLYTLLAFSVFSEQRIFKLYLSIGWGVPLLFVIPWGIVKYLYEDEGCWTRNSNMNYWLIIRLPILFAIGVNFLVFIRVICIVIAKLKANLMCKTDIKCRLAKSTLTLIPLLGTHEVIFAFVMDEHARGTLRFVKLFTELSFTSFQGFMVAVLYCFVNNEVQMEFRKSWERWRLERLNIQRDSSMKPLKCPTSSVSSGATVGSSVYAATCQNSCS", "test": "cell-based or functional assay"}
{"substance": "[^14Leu,^28Gln]Exendin-4-(1-32)-fGLP-1-(33-37)-miniPEG-(S)-2,6-diamino-1-(pyrrolidin-2-cyano-1-yl)hexan-1-amide (peptide)", "values": [{"measurement": "GLP Cyclase EC50", "value": 17, "unit": "pM"}]}
